The source of these data is the RNAGym collection of RNA variant scans (doi:10.1073/pnas.2313332121).

First the molecules themselves.
B1: TPR t1 (parent)
chain: GACCAAUCUGCCCUCAGAGCUCGAGAACAUCUUCGGAUGCAGAGGAGGCAGGCUUCGGUGGCGCGAUAGCGCCAACGUCCUCAACCUCCAAUGCAUCCCACCACAUGAUGAUGCCUGAAGAGCCUUGGUUUUUUG

The series covers variants of B1. Briefly: polymerase ribozyme fitness, log enrichment relative to wild type (log ratio); higher = more active; in vitro selection for triplet polymerase activity. In short, it runs like this: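 Fitness measures genotype enrichment against wild-type enrichment on a logarithmic scale, with inverse-variance-weighted averaging of replicates. The logarithm is base 2, and genotypes were kept only with ≥10 input reads and ≥1 read per output in Illumina sequencing. The sequenced libraries came from one triplicate in vitro selection round, including frozen incubation at −7 °C, of PCR-built, transcribed mutant libraries of each subunit of a heterodimeric triplet polymerase ribozyme.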
As to G45C C62G G93U, the “polymerase ribozyme fitness (log ratio)” value was -5.04.
To G45A G113A C115U belongs -3.5; to G45U A75G U106C A119U A121C U130A, -0.0532; to G45A C124U, 0.272.
For A46C A50U G71U, the “polymerase ribozyme fitness (log ratio)” value was -1.86.
For G45U C53A G69A C89A C104U C124A G135A, the “polymerase ribozyme fitness (log ratio)” value was -6.34.
The same measure for G45A G71U G120A U133A: -0.0049.
To G45A G52U C79U A95C A121C belongs -0.812; to A46C C53G G57C A66C C115U G122A, -6.53.
Take G45U A50G C73U U133A: the “polymerase ribozyme fitness (log ratio)” value was -1.75.
The same measure for G44U G110A: -2.64; for A46C C64A: -5.98; for G45A G48U C53G C72A: -0.719.
The same measure for G45C A75G U96A G113C: -2.91.
To G45U A68G belongs -4.43; to G45U U129G, -2.58; to A46C A74U, -0.673.
Take G45U G63C C104U: the “polymerase ribozyme fitness (log ratio)” value is -0.927.
On to G45A G71C, for which the “polymerase ribozyme fitness (log ratio)” value is -1.76.
To G45A G71U belongs -0.591.
The same measure for G45A A74G A95U: -1.3; for G45U C49U: -1.85; for G45A G52C G57U: -2.04.
Turning to G45A C85U, the “polymerase ribozyme fitness (log ratio)” value is -1.45.
To G45U G58A C86U A95C belongs -3.29; to G45U C94U A111U G127U, -3.61.
To G45C G48C G69A belongs -4.32; to G45U G47U G113A, -3.45.
The same measure for G45C C53U G63C U116G: -3.05; for G45A G60A: -1.47.
For G45C U96A, the “polymerase ribozyme fitness (log ratio)” value is -1.79.
The same measure for G45C G77U: -1.32; for G45A C73U: -1.34.
For G45U A84C C94A, the “polymerase ribozyme fitness (log ratio)” value was -2.59.
Consider G44U U54C G113C, for which the “polymerase ribozyme fitness (log ratio)” value was -3.08.
The same measure for G45A C64U C86U C115A C123G: -1.22.
Regarding G45C C73U G117A G135U, the “polymerase ribozyme fitness (log ratio)” value was -4.
Take G45C C62A A83G A84U: the “polymerase ribozyme fitness (log ratio)” value was -3.77.
In the case of G45U C99A G117C, the “polymerase ribozyme fitness (log ratio)” value is -6.81.
Take G45A U55G G77A: the “polymerase ribozyme fitness (log ratio)” value was -1.78.
Take G45U C72U: the “polymerase ribozyme fitness (log ratio)” value is -1.63.
The same measure for G45U C49U G69U A121U G128C: -1.32.
The same measure for G45C G61A: 0.0573; for G45U A74C G77A U112C: 1.05.
The same measure for G45U C64A A111U U133A: -5.34; for G45C C72A G135C: -0.387.
For the variant G45U C70A, the “polymerase ribozyme fitness (log ratio)” value is -2.74.
The same measure for G44U G45C: -2.69; for G44U G58C G113A: -1.31.
Take G45U G61C A66U: the “polymerase ribozyme fitness (log ratio)” value is -3.49.
With G45U C49U G61A C115G, the “polymerase ribozyme fitness (log ratio)” value is -2.62.
In the case of G45C C56U U81G G113C, the “polymerase ribozyme fitness (log ratio)” value is -4.36.
For G45A C70A C85A U133C, the “polymerase ribozyme fitness (log ratio)” value was -4.78.
The same measure for G45C U132A: -1.99; for G44U U92C: -1.82.
As for G44U G71A, the “polymerase ribozyme fitness (log ratio)” value is -2.39.
To G45U C89U U96A C114U C124G belongs -2.49; to G44U C89U A111U, -4.49.
Take G44U G48A C76U C85A C88A: the “polymerase ribozyme fitness (log ratio)” value was -2.99.
To G45A C72A U92G belongs -2.71; to G45C A68G U112A A118U, -4.16.
The same measure for G45A G128A: -2.84; for G45A C85U U92C G128A: -5.92; for G44U U55G G61C A119U: -1.87.
For the variant G45U G52U U54C G58C G60C, the “polymerase ribozyme fitness (log ratio)” value is -0.884.
For G45A C53G U59G C104A U112A, the “polymerase ribozyme fitness (log ratio)” value is -0.739.
In the case of G45U G57U A118U, the “polymerase ribozyme fitness (log ratio)” value is -0.288.
Take G45A G69A U87A U125A: the “polymerase ribozyme fitness (log ratio)” value was -3.37.
Consider G45A A100U, for which the “polymerase ribozyme fitness (log ratio)” value was -2.26.
To G44U G117A belongs -2.13.
Regarding G45A A68G U112A, the “polymerase ribozyme fitness (log ratio)” value was -4.04.
On to G45U G77C, for which the “polymerase ribozyme fitness (log ratio)” value was -1.17.
Take G45A U96G: the “polymerase ribozyme fitness (log ratio)” value was -1.51.
Consider G44U G61A, for which the “polymerase ribozyme fitness (log ratio)” value was -1.47.
As for G44U G61C, the “polymerase ribozyme fitness (log ratio)” value is -2.36.
To G44U G61U belongs -0.394; to G45C C101G G122A, -3.08; to G44U C53G G60A A121C, 0.687.
To G45U G47U C53A G57A G58U C86A belongs -2.17; to G44U C64U C102A, -2.68.
In the case of G45U A50U C53A C114U, the “polymerase ribozyme fitness (log ratio)” value was -3.7.
To G45A G48U G93A belongs -3.09; to G45U C53A A90G C97U, -1.75.
Regarding G45U U92C, the “polymerase ribozyme fitness (log ratio)” value was -2.47.
To G44U C72G U78G C82G belongs -2.66.
In the case of G44U C89A, the “polymerase ribozyme fitness (log ratio)” value is 0.219.
The same measure for G44U G63U C115G: -3.72.
As for G45C A74G A75U G77C C88U G135C, the “polymerase ribozyme fitness (log ratio)” value is -1.28.
To G45A C62U U112G C115G belongs -2.08; to G45U G63A U131A, -1.33; to G45U C94U, -1.46.
With G45U C94A, the “polymerase ribozyme fitness (log ratio)” value is -1.66.
The same measure for G45A C49G U106C U112A: -0.738; for G45C U106A: -1.34.
Take G45U C88A U130G: the “polymerase ribozyme fitness (log ratio)” value is -0.102.
The same measure for G45A U106C: -1.09.
As for G45U U78C C79A C123A U126C, the “polymerase ribozyme fitness (log ratio)” value is -3.45.
On to G45U G69A U78C U87G A111U, for which the “polymerase ribozyme fitness (log ratio)” value was -6.45.
With G45A A68U C104U U109C, the “polymerase ribozyme fitness (log ratio)” value is -6.38.
On to G45A C88U, for which the “polymerase ribozyme fitness (log ratio)” value was -0.289.
Regarding A46C A50U C72A, the “polymerase ribozyme fitness (log ratio)” value is -1.15.
The same measure for G45U A111U C124U: -3.45; for G45U U109A: -6.02.
To G45A C73U G113A C115U belongs -4.38; to G44U G63C, -1.66; to G44U G63A, -1.62.
The same measure for G45U U78A: -1.86.
In the case of G45A G48U U112G, the “polymerase ribozyme fitness (log ratio)” value was -2.7.
To G45A C70A belongs -1.89; to G45A C70G, -3.56; to G45U G117U, -3.43.
Turning to G45U G117A, the “polymerase ribozyme fitness (log ratio)” value was -1.62.
The same measure for G45C U87C A108U: -6.32; for G45A G113U: -2.04; for G45A G113A: -1.71.
To G45A G51A C79G C82U C86U U112A C115A belongs -7.28; to G45U A46C U54C U78C, -2; to G44U C72U C76A C88U U109A, -5.19.
For G45U A46C U54C A90G, the “polymerase ribozyme fitness (log ratio)” value is -1.94.
To G45C C97A belongs -4.5; to G45A C64A, -6.18; to G45C A50C, -0.909.
The same measure for G45C A50C A121C: 0.0664; for G44U G69C A121G: 0.0622.
For the variant G45C C72U C85G, the “polymerase ribozyme fitness (log ratio)” value was -3.66.
Regarding G45A G61C, the “polymerase ribozyme fitness (log ratio)” value is -1.97.
The same measure for G45U G63A C79A A83G: -6.05; for G45U C94U C101G: -3.3.
For the variant A46C C53A G60U C102U, the “polymerase ribozyme fitness (log ratio)” value was -3.11.
Consider G44U G63C C79U U112A, for which the “polymerase ribozyme fitness (log ratio)” value came out at 0.269.
The same measure for G45C U112C: 1.16.
The same measure for G45A G48U C49A C53U C115G: -3.77; for G45C U78C C124A: 0.349; for G44U C114U: -2.25.
To G45A C102A G122A belongs -3.14.
G45A U59C C86A: the “polymerase ribozyme fitness (log ratio)” value is -3.96.
To G44U C62A A84U A118G belongs -4.34; to A46C C72A, 0.257.
The same measure for A46C C72U: -1.13.
With G45A A121G, the “polymerase ribozyme fitness (log ratio)” value is 1.78.
The same measure for G45A G48C C53U C62U C102U C124G U131C: -1.71; for G45C G51A: -3.29; for G45A C56U G69U G93U: -4.17.
The same measure for G45U C70A G120U G122C: -2.72.
To G45C G71U A91G C101U G110A belongs -5.08.
In the case of G45U C53A C72A C89G, the “polymerase ribozyme fitness (log ratio)” value is -1.62.
To G45U A50U belongs -2.62.
The same measure for G44U G57U C89U C104U: -1.47; for G45U G51U C62U U78C C80G: -4.39.
To G45A U131A belongs -0.734; to G45A U131G, -0.996.
On to G44U G57A C94G, for which the “polymerase ribozyme fitness (log ratio)” value is -3.86.
As for G45U A50U G60A C62U, the “polymerase ribozyme fitness (log ratio)” value was -1.75.
The same measure for A46C C56U C72U U78A A90G C94U A111C: -0.367.
As to G45U A46C, the “polymerase ribozyme fitness (log ratio)” value is -2.05.
The same measure for G45U A46U: -2.3; for G44U G47U: -2.16.
As for G45C G63C, the “polymerase ribozyme fitness (log ratio)” value is -2.1.
The same measure for G45A C73A G113U: -4.75; for G45U G110C: -4.47.
To G45A G135U belongs -1.9; to G45U U54C U132C, -1.01.
To G44U U55A A83U belongs -1.34.
Regarding G45U C101U G113A, the “polymerase ribozyme fitness (log ratio)” value was -2.93.
For G44U C62G G117A, the “polymerase ribozyme fitness (log ratio)” value is -4.71.
As for A46C C53U U54G G120U, the “polymerase ribozyme fitness (log ratio)” value was -0.194.
The same measure for G45U G93A: -1.79.
